The text below walks through data of patent US20100144601A1 (Janssen / Centocor, published 2010).

The test concerns the target T1, recombinant TNFα, biotinylated (human, UniProt P01375 77-233, biotinylated using sulfo-NHS-LC-Biotin (sites not given)).
T1 construct: human is stated in the abstract and claims; also called biotinylated TNFα; human TNFα
Nature of the test: ELISA of lysates on biotinylated TNFα on streptavidin plate. On the procedure:
Maxisorp plates (Nunc) were coated with 0.5 μg of streptavidin, washed with TBST, and bound to 100 ng of biotinylated TNFα or 200 ng of biotinylated human serum albumin before being blocked with Starting Block (Thermo Scientific). Clarified lysates diluted 1:1 in Starting Block were added to the plates and allowed to bind for 1 hour before being washed with TBST. Detection of bound Tencon was accomplished using an anti-HIS-HRP antibody (Qiagen).
(An ELISA detects its analyte on a solid surface through an enzyme-linked reagent.)

T1 sequence (P01375 77-233 limits assumed): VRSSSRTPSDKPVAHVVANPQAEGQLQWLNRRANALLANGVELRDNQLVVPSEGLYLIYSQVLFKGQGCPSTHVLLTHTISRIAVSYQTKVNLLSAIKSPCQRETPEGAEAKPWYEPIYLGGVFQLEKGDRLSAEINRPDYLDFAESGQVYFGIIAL

B1: Clone No. 86 (designed binder)
chain: LPAPKNLVVSEVTEDSLRLSWTAPDAAFDSFLIQYQESEKVGEAINLTVPGSERSYDLTGLKPGTEYTVSIYGVWAHLLRDPLSAEFTT
notes: F:G WAHLLRD
B1: the binding result is “binds”.
